Laboratory results published in article PMC12362812.

Biological target: NUP93 (nucleoporin 93) (UniProt Q8N1F7)
Experiment: co-immunoprecipitation, Western blot
Conditions: reference: wild-type β-catenin; sites S191

binding against the reference: weaker
Substance: β‐catenin (from UniProt P35222) β-catenin S191 mutant (S191A)
